Laboratory results from patent publication US9688764B2, “Methods of treating breast cancer by administering anti-human prolactin receptor (PRLR) antibodies” (REGENERON PHARMACEUTICALS, INC., priority 2013, dated 2017).

T1: PRLR-expressing cells (T47D) (Homo sapiens, UniProt P16471)
T1 construct: a native PRLR expressing cell line (T47D); endogenous in cells; host or cells: T47D
T1 sequence (P16471 25-622): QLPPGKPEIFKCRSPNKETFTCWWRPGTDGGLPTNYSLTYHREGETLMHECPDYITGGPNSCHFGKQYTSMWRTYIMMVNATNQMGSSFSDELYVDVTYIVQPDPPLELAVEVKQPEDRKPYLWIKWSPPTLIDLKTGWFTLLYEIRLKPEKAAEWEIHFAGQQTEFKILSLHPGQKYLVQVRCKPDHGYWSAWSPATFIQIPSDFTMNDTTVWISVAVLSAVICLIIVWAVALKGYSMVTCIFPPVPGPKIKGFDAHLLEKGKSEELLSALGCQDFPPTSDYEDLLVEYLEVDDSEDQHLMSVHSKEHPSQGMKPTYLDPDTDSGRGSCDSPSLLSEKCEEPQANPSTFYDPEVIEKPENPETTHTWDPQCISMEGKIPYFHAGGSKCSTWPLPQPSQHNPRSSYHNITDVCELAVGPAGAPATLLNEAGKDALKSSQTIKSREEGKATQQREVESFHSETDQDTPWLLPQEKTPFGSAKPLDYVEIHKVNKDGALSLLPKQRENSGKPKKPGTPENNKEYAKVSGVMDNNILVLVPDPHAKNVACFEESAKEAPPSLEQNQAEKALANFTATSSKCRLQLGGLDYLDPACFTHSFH

T2: HEK293/hPRLR (Homo sapiens, UniProt P16471)
T2 construct: HA; expressed in transfected cells; host or cells: HEK293
T2 sequence (P16471 25-622): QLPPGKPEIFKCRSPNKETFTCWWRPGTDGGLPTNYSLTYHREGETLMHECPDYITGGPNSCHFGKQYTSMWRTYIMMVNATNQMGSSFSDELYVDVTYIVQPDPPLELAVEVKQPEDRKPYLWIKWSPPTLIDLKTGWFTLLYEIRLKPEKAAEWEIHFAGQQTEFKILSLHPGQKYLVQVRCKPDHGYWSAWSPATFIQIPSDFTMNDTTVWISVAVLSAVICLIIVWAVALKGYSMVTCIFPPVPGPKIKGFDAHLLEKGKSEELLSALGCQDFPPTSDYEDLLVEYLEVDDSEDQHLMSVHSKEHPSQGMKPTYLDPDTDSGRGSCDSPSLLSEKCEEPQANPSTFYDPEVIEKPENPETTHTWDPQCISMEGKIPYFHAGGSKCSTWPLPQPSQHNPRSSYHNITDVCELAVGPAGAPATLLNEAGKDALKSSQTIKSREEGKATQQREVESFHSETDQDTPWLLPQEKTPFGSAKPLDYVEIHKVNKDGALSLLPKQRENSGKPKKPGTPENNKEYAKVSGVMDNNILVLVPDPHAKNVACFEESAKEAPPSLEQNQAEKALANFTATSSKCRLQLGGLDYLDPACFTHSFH


Tests used:
[1] = biological target: T1, PRLR-expressing cells (T47D); experiment: Antibody binding and internalization by PRLR-expressing cells (imaging); type: cell-based; conditions: [mAb] (0.67 nM); for % Internalization relative to Control I: alexa488 intensity in intracellular vesicles, 1 h at 37° C.; for % Total Binding relative to Control I: whole cell alexa488 intensity at 37° C.
Description: In this Example, the internalization of anti-PRLR antibodies by PRLR-expressing cells (T47D) was assessed. Briefly, 20,000 T47D cells were seeded in collagen coated 96 well plates. […] Cells were then incubated with alexa488 conjugated anti-hFc Fab secondary antibodies for 30 minutes on ice followed by two additional PBS washes. Antibodies were allowed to internalize for 1 h at 37° C. in internalization buffer (PBS+2% FBS) or remained at 4° C. Cells were fixed in 4% formaldehyde, nuclei were stained with DRAQ5 (Cell signaling), and images were acquired on the ImageXpress micro XL (Molecular Devices). Whole cell alexa488 intensity at 37° C. (Binding) and the alexa488 intensity in the intracellular vesicles at 37° C. (Internalization) were determined via Columbus image analysis software (PerkinElmer).

[2] = biological target: T3, hPRLR.mmh (soluble monomeric human PRLR) (Homo sapiens, UniProt P16471); experiment: Surface plasmon resonance (Biacore T200), mAb-capture format; type: binding; conditions: antibody-capture format, analyte hPRLR.mmh
T3 construct: soluble monomeric (hPRLR.mmh); mmh (myc-myc-hexahistidine)
T3 sequence (P16471 with tags, fused parts or gaps): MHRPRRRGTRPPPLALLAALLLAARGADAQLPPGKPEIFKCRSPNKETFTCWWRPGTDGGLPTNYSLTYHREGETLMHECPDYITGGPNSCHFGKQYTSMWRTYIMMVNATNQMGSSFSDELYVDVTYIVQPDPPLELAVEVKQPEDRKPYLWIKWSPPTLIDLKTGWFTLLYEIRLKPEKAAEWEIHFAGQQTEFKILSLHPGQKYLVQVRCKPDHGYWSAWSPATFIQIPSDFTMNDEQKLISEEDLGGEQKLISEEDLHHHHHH
Description: (§1) Antibodies, expressed as human IgG1 Fc “[…]” designations), were captured onto an anti-human Fc sensor surface (mAb-capture format), and soluble monomeric (hPRLR.mmh; SEQ ID NO:401, or macaca fascicularis (mf) PRLR.mmh; SEQ ID NO:403) or dimeric (hPRLR.mFc; SEQ ID NO:402) PRLR protein was injected over the sensor surface. Measurements were conducted on a T200 Biacore instrument. Kinetic association (ka) and dissociation (kd) rate constants were determined by processing and fitting the data to a 1:1 binding model using Scrubber 2.0 curve fitting software.

[3] = biological target: T4, hPRLR.mFc (soluble dimeric human PRLR) (Homo sapiens, UniProt P16471); experiment: as above; type: binding; conditions: antibody-capture format, analyte hPRLR.mFc
T4 construct: dimeric (hPRLR.mFc)
T4 sequence (P16471 with tags, fused parts or gaps): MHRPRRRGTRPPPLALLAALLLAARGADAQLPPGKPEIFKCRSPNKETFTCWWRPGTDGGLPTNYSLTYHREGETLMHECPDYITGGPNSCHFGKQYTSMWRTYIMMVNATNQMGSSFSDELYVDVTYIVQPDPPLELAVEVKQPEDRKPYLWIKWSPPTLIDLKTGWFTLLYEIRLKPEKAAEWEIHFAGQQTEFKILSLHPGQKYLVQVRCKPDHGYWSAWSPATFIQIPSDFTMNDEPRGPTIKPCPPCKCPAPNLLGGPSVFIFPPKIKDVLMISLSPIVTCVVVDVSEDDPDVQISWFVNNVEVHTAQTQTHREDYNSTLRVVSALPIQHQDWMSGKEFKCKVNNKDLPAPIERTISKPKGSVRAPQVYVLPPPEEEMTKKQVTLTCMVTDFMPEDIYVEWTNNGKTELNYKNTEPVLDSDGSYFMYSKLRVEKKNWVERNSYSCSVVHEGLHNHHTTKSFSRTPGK
Description: as §1

[4] = biological target: mfPRLR.mmh (monomeric macaca fascicularis PRLR); experiment: as above; type: binding; conditions: antibody-capture format, analyte mfPRLR.mmh
mfPRLR.mmh (monomeric macaca fascicularis PRLR), sequence (as listed by the source): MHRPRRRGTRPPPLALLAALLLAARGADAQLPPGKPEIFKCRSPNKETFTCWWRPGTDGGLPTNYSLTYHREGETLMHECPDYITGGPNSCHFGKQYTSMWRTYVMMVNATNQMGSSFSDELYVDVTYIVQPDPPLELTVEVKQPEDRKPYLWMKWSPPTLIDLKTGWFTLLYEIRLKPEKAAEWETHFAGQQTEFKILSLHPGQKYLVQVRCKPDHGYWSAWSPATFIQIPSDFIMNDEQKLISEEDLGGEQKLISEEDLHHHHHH
Description: as §1

[5] = tested on: HEK293 (non-expressing parental cells); experiment: FACS cell surface binding
Description: (§2) The ability of anti-PRLR antibodies to selectively bind PRLR expressing cell lines was next determined. Human, monkey macaca fascicularis, and mouse PRLR constructs with an HA tag were stably introduced into HEK293 cells via Lipofectamine 2000-mediated transfection methodology. Transfectants (HEK293/hPRLR, HEK293/mfPRLR and HEK293/mPRLR) were selected for at least 2 weeks in complete growth media plus G418.
(§3) Cell surface expression of PRLR on 293/hPRLR cells was assessed via FACS analysis. Briefly, 1×10^5 cells were incubated with 10 μg/ml of Control antibody I, or an isotype control for 30 min on ice in antibody dilution buffer. Following two washes with antibody dilution buffer, cells were incubated with 10 μg/ml of PE conjugated anti-human secondary antibodies for 30 min on ice. Following two additional washes, samples were run on a Hypercyt® cytometer and analyzed in FORECYT™ (IntelliCyt, Albuquerque, N. Mex.). The mean fluorescence intensities (MFI) were expressed as fold change above isotype control levels (background). FACS binding confirmed that Control I selectively bound to 293/hPRLR expressing cells with MFIs that were 30 fold above background (isotype ctrl) levels and less than 2 fold binding on parental cells.
(§4) Next, the anti-PRLR antibodies of the present invention were tested via FACS for selective binding to the engineered overexpressing PRLR HEK293 cell lines, as well as to non-expressing HEK293 cells and a native PRLR expressing cell line (T47D).

HEK293/hPRLR = biological target: T2, HEK293/hPRLR; experiment: FACS cell surface binding
Description: as §2, §3, §4

HEK293/mfPRLR = experiment: FACS cell surface binding; parameters: species or system macaca fascicularis
HEK293/mfPRLR, sequence (as listed by the source): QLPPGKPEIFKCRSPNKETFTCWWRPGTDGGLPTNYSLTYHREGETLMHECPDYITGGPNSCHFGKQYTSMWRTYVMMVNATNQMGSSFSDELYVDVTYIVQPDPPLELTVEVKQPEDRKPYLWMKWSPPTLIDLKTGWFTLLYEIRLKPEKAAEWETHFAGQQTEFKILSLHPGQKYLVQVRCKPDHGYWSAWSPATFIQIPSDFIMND
Description: as §2, §3, §4

% Internalization relative to Control I [1]	% Total Binding relative to Control I [1]	Kd ([2]; 25° C.)	T½ ([2]; 25° C.)	Kd ([2]; 37° C.)	T½ ([2]; 37° C.)	Kd ([3]; 25° C.)	T½ ([3]; 25° C.)	Kd ([3]; 37° C.)	T½ ([3]; 37° C.)	Kd ([4]; 25° C.)	Kd ([4]; 37° C.)	FACS Cell Binding (Fold Above Background) (HEK293/hPRLR)	Molecule	T½ ([4]; 25° C.)	T½ ([4]; 37° C.)	FACS Cell Binding (Fold Above Background) [5]	FACS Cell Binding (Fold Above Background) (HEK293/mfPRLR)
169.0%	161.5%	1.17 nM	42.5 min	3.16 nM	8.8 min	0.0867 nM	315.8 min	0.167 nM	83.3 min	1.44 nM	4.08 nM	35 Fold Above Background	H1H6958N2: human IgG1 Fc form of H2M6958N2; anti-PRLR, receptor blocking; HCVR/LCVR SEQ ID NOs 290/298 (antibody, V domains shown, human IgG1 Fc) VH: QVQLVESGGGVVQPGRSLRLSCGASGFTFRNYGMQWVRQGPGKGLEWVTLISFDGNDKYYADSVKGRFTISRDNSKNTLFLQMNSLRTEDTAVYYCARGGDFDYWGQGTLVTVSS VL: DIQMTQSPSSLSASVGDRVTITCRASQDIRKDLGWYQQKPGKAPKRLIYAASSLHSGVPSRFSGSGSGTEFTLTISSLQPEDFATYYCLQHNSYPMYTFGQGTKLEIK	41.3 min	8.6 min	1 Fold Above Background	30 Fold Above Background
137.2%	111.3%	0.302 nM	44.9 min	0.607 nM	12.0 min	0.0439 nM	282.9 min	0.0672 nM	91.3 min	0.416 nM	0.982 nM	29 Fold Above Background	H1H6966N: human IgG1 Fc form of H2M6966N; anti-PRLR; HCVR/LCVR SEQ ID NOs 338/346 (antibody, V domains shown, human IgG1 Fc) VH: QVQLVQSGAEVQKPGASVKVSCKVSGYTLTALSIHWVRQAPGKGLEWMGNFDPGDGETIHAQKFQGRVTMTGDTSTDTAYMELSSLRSEDTAVYYCVGVTFDYWGQGTLVTVSS VL: EIVMTQSPATLSVSPGERATLSCRASQSVASNLAWYQQKPGQAPRLLLYGASTRATGIPARFSGSGSGTEFTLTISSLQSEDFALYYCQHYNNWPLTFGGGTKVEIK	35.6 min	9.6 min	1 Fold Above Background	18 Fold Above Background
168.6%	158.6%	1.35 nM	34.8 min	2.2 nM	12.4 min	0.11 nM	259.3 min	0.107 nM	118.8 min	3.08 nM	4.54 nM	38 Fold Above Background	H1H6967N: human IgG1 Fc form of H2M6967N; anti-PRLR; HCVR/LCVR SEQ ID NOs 354/362 (antibody, V domains shown, human IgG1 Fc) VH: EVQLVESGGDLVHPGRSLRLSCAASGFPFDEYAMHWVRQVPGKGLEWVSGISWSNNNIGYADSVKGRFTISRDNAKNSLYLQMNSLRPEDTAFYYCAKSGIFDSWGQGTLVTVSS VL: EIVMTQSPATLSVSPGERATLSCRASQSVSRDLAWYQQKPGQAPRLLIHGASTRATGIPARFSGSGSGAEFTLIISSLQSEDFAVYYCQQYNNWPLTFGGGTKVEIK	19.7 min	7.1 min	1 Fold Above Background	28 Fold Above Background
15.3%	2.0%	202 nM	0.3 min	681 nM	0.4 min	1.45 nM	22.3 min	4.51 nM	5.0 min	129 nM	370 nM	6 Fold Above Background	H1H6959N2: human IgG1 Fc form of H2M6959N2; anti-PRLR; HCVR/LCVR SEQ ID NOs 306/314 (antibody, V domains shown, human IgG1 Fc) VH: EVQLVESGGGLVQPGRSLRLSCAASGFTFDDYAMHWVRQAPGKGLEWVSGISWHSGIIGYADSVKGRFTISRDNAKNSLYLQMNSLRTEDAALYYCAKIGSYFYFDSWGQGTLVTVSS VL: EIVLTQSPGTLSLSPGERATLSCRASQSVSSNYLAWYQQKPGQAPRLLIYGASSRATGIPDRFSGSGSGTDFTLTISRLEPEDFAVYYCQQFGSSGYTFGQGTNLEIK	0.7 min	0.7 min	1 Fold Above Background	11 Fold Above Background
120.0%	89.7%	6.74 nM	15.8 min	16.2 nM	5.8 min	0.141 nM	324.4 min	0.5 nM	78.7 min	6.2 nM	14.9 nM	29 Fold Above Background	H1H6960N: human IgG1 Fc form of H2M6960N; anti-PRLR; HCVR/LCVR SEQ ID NOs 322/330 (antibody, V domains shown, human IgG1 Fc) VH: EVQLVESGGGLVKPGGSLRLSCAASGITFSSYSMNWVRQAPGKGLEWVSSISTRSSLIHYADSVKGRFTISRDNAKNSLYLQMNSLRDEDTAVYYCARWDAAAAFDYWGQGTLVIVSS VL: DIQLTQSPSFLSASVGDRVTITCWASQGISSYLAWYQQKPGKAPKLLIYVASTLQSGVPSRFSGSGSGTEFTLTISSLQPEDFATYFCQQLNSYPLTFGGGTKVEIK	19.8 min	9.0 min	1 Fold Above Background	23 Fold Above Background
